Reference: paper PMC4022514, “The C-Terminal Domain from S. cerevisiae Pat1 Displays Two Conserved Regions Involved in Decapping Factor Recruitment” (PLoS ONE, 2014)

Experiments:
Scd6 (two-hybrid fusion) = target: T1, Scd6 (two-hybrid fusion) (S. cerevisiae, UniProt P45978 1-349); assay: two-hybrid; yeast strain BSY2475, isogenic to MAV203 but lacking Edc3 (Δedc3); β-galactosidase activity by Beta-Glo; Pat1 fused to Gal4AD; settings: partners not purified
T1 construct: Scd6, S. cerevisiae; source: yeast two-hybrid fusion
T1 sequence (looked up): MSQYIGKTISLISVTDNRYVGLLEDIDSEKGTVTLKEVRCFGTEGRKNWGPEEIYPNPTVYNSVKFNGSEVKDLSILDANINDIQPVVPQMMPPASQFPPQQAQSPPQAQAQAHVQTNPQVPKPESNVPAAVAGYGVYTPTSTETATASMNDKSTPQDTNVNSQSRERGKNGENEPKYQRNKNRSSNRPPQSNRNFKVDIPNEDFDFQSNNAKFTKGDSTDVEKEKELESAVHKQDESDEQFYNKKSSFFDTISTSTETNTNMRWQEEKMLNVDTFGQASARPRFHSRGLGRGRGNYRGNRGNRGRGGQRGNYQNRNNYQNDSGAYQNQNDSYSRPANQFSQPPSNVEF

[1] = target: T2, Edc3 (two-hybrid fusion to the DNA binding domain) (S. cerevisiae, UniProt P39998 1-551); assay: as above; settings: partners not purified
T2 construct: Edc3, S. cerevisiae; The bridge between Pat1 and Rps28 in the wild-type host strain is the strain's endogenous Edc3, the same protein without the fusion; source: yeast two-hybrid fusion
T2 sequence (looked up): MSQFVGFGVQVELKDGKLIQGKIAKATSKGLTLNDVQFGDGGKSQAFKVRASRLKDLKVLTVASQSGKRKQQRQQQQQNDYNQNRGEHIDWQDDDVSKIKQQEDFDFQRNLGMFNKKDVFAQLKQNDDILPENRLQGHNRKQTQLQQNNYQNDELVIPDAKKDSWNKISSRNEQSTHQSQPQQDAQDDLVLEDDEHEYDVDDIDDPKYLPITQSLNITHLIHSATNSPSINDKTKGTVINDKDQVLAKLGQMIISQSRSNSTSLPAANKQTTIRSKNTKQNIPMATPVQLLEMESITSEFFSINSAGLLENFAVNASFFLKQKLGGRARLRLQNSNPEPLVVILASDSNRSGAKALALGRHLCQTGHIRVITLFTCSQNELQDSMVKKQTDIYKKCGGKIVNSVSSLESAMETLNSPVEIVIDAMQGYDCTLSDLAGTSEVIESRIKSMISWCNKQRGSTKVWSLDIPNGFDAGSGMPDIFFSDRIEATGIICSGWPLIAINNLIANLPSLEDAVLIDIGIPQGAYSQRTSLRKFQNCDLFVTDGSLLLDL

B1: full-length ScPat1 (two-hybrid fusion to Gal4AD) (natural protein, S. cerevisiae, UniProt P25644 1-796, looked up)
chain: MSFFGLENSGNARDGPLDFEESYKGYGEHELEENDYLNDETFGDNVQVGTDFDFGNPHSSGSSGNAIGGNGVGATARSYVAATAEGISGPRTDGTAAAGPLDLKPMESLWSTAPPPAMAPSPQSTMAPAPAPQQMAPLQPILSMQDLERQQRQMQQQFMNFHAMGHPQGLPQGPPQQQFPMQPASGQPGPSQFAPPPPPPGVNVNMNQMPMGPVQVPVQASPSPIGMSNTPSPGPVVGATKMPLQSGRRSKRDLSPEEQRRLQIRHAKVEKILKYSGLMTPRDKDFITRYQLSQIVTEDPYNEDFYFQVYKIIQRGGITSESNKGLIARAYLEHSGHRLGGRYKRTDIALQRMQSQVEKAVTVAKERPSKLKDQQAAAGNSSQDNKQANTVLGKISSTLNSKNPRRQLQIPRQQPSDPDALKDVTDSLTNVDLASSGSSSTGSSAAAVASKQRRRSSYAFNNGNGATNLNKSGGKKFILELIETVYEEILDLEANLRNGQQTDSTAMWEALHIDDSSYDVNPFISMLSFDKGIKIMPRIFNFLDKQQKLKILQKIFNELSHLQIIILSSYKTTPKPTLTQLKKVDLFQMIILKIIVSFLSNNSNFIEIMGLLLQLIRNNNVSFLTTSKIGLNLITILISRAALIKQDSSRSNILSSPEISTWNEIYDKLFTSLESKIQLIFPPREYNDHIMRLQNDKFMDEAYIWQFLASLALSGKLNHQRIIIDEVRDEIFATINEAETLQKKEKELSVLPQRSQELDTELKSIIYNKEKLYQDLNLFLNVMGLVYRDGEISELK
notes: Pat1, S. cerevisiae, full-length; pBS2374 is named only as the template for the Gal4AD-Pat1ΔC68 plasmid pBS4907; also called wild type ScPat1; full-length Pat1 protein; source: yeast two-hybrid fusion
fold two-hybrid signal, Δedc3 strain over wild type strain (Scd6 (two-hybrid fusion)): 3 fold | fold two-hybrid signal, Δedc3 strain over wild type strain [1]: > 60 fold
